Patent publication US20230074277A1 (BUEHLMANN LABORATORIES, published 2023)

Target: the molecule itself
Assay: size exclusion chromatography, buffer A + 2 mM CaCl2
From the text: FIG. 9: Site-directed mutagenesis of the SEQ-ID NO:3 fusion protein and its consequences. A previously described mutation (EP3248015 A1) that impairs heterotetramerization of S100A8/S100A9, namely E78A in the S100A9 polypeptide chain, was introduced into the fusion protein. This E78A mutant remains monomeric, even in the presence of CaCl₂.
Site directed mutagenesis was used to introduce the mutation E78A in the S100A9 chain (see EP3248015 A1) of the fusion protein (SEQ ID NO:3). In endogenous calprotectin, this mutation abrogates […] (Leukert N et al. Calcium-dependent tetramer formation of S100A8 and S100A9 is essential for biological activity (2006). J. Mol. Biol. 359: 961-972). Similary, introduction of this mutation into the fusion protein (SEQ-ID NO:3) prevented CaCl₂) dependent dimerization. The S200 size exclusion chromatography of the mutated and non-mutated fusion proteins (SEQ ID NO:3) in buffer A containing 2 mM CaCl₂) was performed as described in Examples 1 and 3 (FIG. 9).

B1: recombinant fusion polypeptide (SEQ ID NO:3) (other)
chain: MHHHHHHLEVLFQGPMTCKMSQLERNIETIINTFHQYSVKLGHPDTLNQGEFKELVRKDLQNFLKKENKNEKVIEHIMEDLDTNADKQLSFEEFIMLMARLTWASHEKMHEGDEGPGHHHKPGLGEGTPLEVLFQGPMLTELEKALNSIIDVYHKYSLIKGNFHAVYRDDLKKLLETECPQYIRKKGADVWFKELDINTDGAVNFQEFLILVIKMGVAAHKKSHEESHKE
notes: Single polypeptide, monomer 26.8 kDa, equal to an S100A8/S100A9 heterodimer; It dimerizes in 2 mM CaCl2, equal to the heterotetramer; also called rCAL (Mrp14-Mrp8 fusion)
- binding result: binds
